One molecule from patent CN1803842A (UNIV NANJING MEDICAL, dated 2006) can be followed below.

One experiment concerns the target T1, BSA (UniProt P02769 25-607).
T1 construct: Control protein in the Western blot
The experiment in a line: Western blot, 20 μg BSA per lane, purified scFv 1:5, detection with anti-c-myc antibody. (Immunoblotting shows a protein as a band on a membrane.)

Another experiment concerns the target T2, Aβ1-42 (UniProt P05067 672-713).
T2 construct: domain: Aβ1-42; Sample loaded on the Tricine SDS-PAGE gel for the Western blot (20 μg per lane); also called Aβ 42; 合成的Aβ多肽
Kind of experiment: Western blot, 20 μg Aβ1-42 per lane on PVDF, purified scFv 1:5, detection with anti-c-myc antibody and HRP goat anti-mouse IgG.

B1: E3单链抗体 (抗Aβ可溶性单链抗体) (scFv)
scFv: QVQLQESGPGLVKPSETLSLTCAVSGYSISSGYYWGWIRQPPGKGLEWIGSIYHSGSTYYNPSLKSRVTISVDTSKNQFSLKLSSVTAADTAVYYCARDLGSSVSWGQGTLVTVSSGGGGSGGGGSGGSALDIQMTQSPSSLSASVGDRVTISCRMSQGISNYLAWYQQKPGKVPKLLIYAASTLQSGVPSRFSGSGSGTDFTLTISSLQPEDVATYYCQKYNSALVTFGQGTKLEIKR
notes: Soluble scFv expressed in E. coli HB2151, purified on His-Trap, about 31 kD; also called E3scFv; E3 scFv; not shown: C-terminal tags of the pHEN2 vector, implied by His-Trap purification and detect
Regarding B1, the binding result is reported as “no binding” in the experiment with BSA and “binds” in the experiment with Aβ1-42.
